Literature values, collected in article PMC12362618, “Development of the First Small-Molecule Inhibitor Targeting Oncostatin M for Treatment of Breast Cancer” (Journal of Medicinal Chemistry, 2025).

Molecular target: gp130 (Homo sapiens) (UniProt P40189)
Sequence (P40189 23-619): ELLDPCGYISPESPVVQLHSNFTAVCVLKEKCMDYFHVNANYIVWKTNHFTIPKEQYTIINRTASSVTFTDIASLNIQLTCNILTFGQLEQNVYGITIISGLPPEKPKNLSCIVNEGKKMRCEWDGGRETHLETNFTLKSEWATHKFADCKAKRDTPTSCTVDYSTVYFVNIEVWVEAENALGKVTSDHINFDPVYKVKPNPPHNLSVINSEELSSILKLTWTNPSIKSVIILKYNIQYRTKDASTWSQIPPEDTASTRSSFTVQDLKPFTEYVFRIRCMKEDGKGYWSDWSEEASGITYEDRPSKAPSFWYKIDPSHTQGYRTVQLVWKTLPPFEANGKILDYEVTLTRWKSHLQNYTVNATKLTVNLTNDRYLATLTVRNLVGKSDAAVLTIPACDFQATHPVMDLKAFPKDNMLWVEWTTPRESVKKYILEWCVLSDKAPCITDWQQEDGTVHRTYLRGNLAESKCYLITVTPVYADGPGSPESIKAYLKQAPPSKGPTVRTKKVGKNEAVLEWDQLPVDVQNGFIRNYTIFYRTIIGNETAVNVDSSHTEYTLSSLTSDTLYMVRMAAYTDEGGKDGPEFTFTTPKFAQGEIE

Chain of OSM (P13725 26-221): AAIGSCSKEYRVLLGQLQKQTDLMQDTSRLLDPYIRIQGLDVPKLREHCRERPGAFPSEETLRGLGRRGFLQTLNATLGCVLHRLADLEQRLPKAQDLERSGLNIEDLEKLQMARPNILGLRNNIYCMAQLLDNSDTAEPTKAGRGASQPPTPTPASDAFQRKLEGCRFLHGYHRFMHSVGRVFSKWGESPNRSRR

OSM (from UniProt P13725)
Kd: 22.7 nM
